The source of these data is the nanobody polyreactivity screen of Harvey et al. (2022).

The nature of this data set: yeast display, Sf9 membrane polyspecificity reagent, FACS + sequencing; frameworks hold sequencing errors. In outline:
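Polyreactivity labels are assigned by the sorting gate from which each nanobody was recovered. The gates were low and high (top ~1%), set on anti-HA fluorescence for expression and streptavidin fluorescence for reagent binding. Before sorting, galactose-induced (36–48 hours) yeast display cells were stained for 1 hour at 4 °C with 10% biotinylated, detergent-solubilized Sf9 membrane reagent.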
On to “QVQLVESGGGLVQAGGRLRLSCAASGSTFRGYAMGWYRQAPGKEREFVAAITYTGSSTTYADSVIGRFTISRDNAKTTVYLQMNSLKPEYTADFYCAARYVASRIYKRYYWGQGTQVTVSS”, for which the “polyreactivity (PSR sort gate)” value is recorded as “high polyreactivity”.
Under “QVQLVESGGGLVQAGGSLRLSCAASGSTFYYNSMGWYRQAPGKERELVARISRSGGSTYADSVKGRFTISRDNAKNTVYLQMNSLKPEDTAVYYCAKDYAPSATKLHYWGQGTQVTVSS” stands “low polyreactivity”; under “QVQLVESGGGLVQAGGSLRLSCAASGSTLYRYAMGWYRQAPGKERELVAAISSAGSTHYADSVKGRFTISRDNAKNTVYLQMNSLKTEDTAVYYCADKRYLKYGYWGQGTQVTVSS”, “high polyreactivity”.
Under “QVQLVESGGGLLQAGGSLRLSCAASGRTYVWNAMGWSRQAPGKERELVAGISWRGGSTYYADSVKGRFRISRDNAKNTVYLQKNSLKPEDTAVYYFAASARFVTYKMYYWGQGTQVTVSS” stands “high polyreactivity”; under “QVQLVESGGGIVQAGGSLRLSCAASGRIISGYVMGWYRQAPGKERELVAAITRSGGSTNYADSVKGRFTISRDNAKNTVYLQMNSLKPEDTAVYYCNAVGRYYRVANGNYDYWGQGTQVTVSS”, “high polyreactivity”; under “QVQLVESGGGLVQAGGSLRLSCAASGSIFYYAMGWYRQATGKERELVAAITTGDGTNYADSVKGRFTISRDNAKNTVYLQMNSLKPEDTAVYYCAKSTYKPYYYYFPYDYWGQGTQVTVSS”, “low polyreactivity”.
On to “QVQLVESGGGLVQAGGSLRLSCAASGITFNPNAMGLYRQAPGKERELVAVITYRGGSTYYADSVKGRFTISRDNAKNTVYLQMNSLKPEDTAVYYCAAQYIGWHLYWYDYWGQGTQVTVSS”, for which the “polyreactivity (PSR sort gate)” value was “low polyreactivity”.
As for “QVQLVESGGGLVQAGGSLRLSCAASGYTFFHNAMGWYRQAPGKERELVATISRGGGSTYYADSVKGRFTISRDNAKNTVYLQMNSLKPEDTAVYYCNKGVITYRRGYWGQGTQVTVSS”, the “polyreactivity (PSR sort gate)” value is “low polyreactivity”.
For “QVHLVESGGGLVQAGGSLRLSCAASGRIFTYKAMGWYRQAPGKERELVAAITYRRSSTYYADSVKGRFTISRDNAKNTVYLQMNSLKTEDTAVYYCAAVFSGFYYAYDYWGQGTQVTVSS” the value was “high polyreactivity”; for “QVQLVESGGGLVQAGGSLRLSCAASGNTFPRYAMGWYRQAPGKERELVASISWSGGSTYYADSVKGRFTISRDNAKNTVYLQMNSLKPEDTAVYYCNARRAYRAWYYPYDYWGQGTQVTVSS”, “high polyreactivity”; for “QVQLVESGGGVVQAGGRLRLSCSASGRTFPWYAMGWSRQEPGKEREVVAAITQSGGSTYYADSVKGRFTISRDNANNTVYLQMNSLKPEDTAGFYCAVASVNTVFYGQDHYYYDYGYWGQGTHVTVSS”, “low polyreactivity”.
Under “QVQLVESGGGLVQAGGSLRLSCAASGRISSSYDMGWYIQAPAKDRELVAAISSGSSTYYAHSVKVRFTISRDNAKNTVYLQMNSLKREDTAVYYCAKLHYAHYWGQGTQVTVSS” stands “low polyreactivity”; under “QEQLQETGGGLVRAGGSLRLICAASRSNSVEAGMGRSRQAPGEERELVATINDGSITNYAVSVKGRFTTSRDNAKYTVYLLMNSLKPEDTAVYYCAALTRNYQSHQFWGQGTQVTVSR”, “high polyreactivity”; under “QVQLVESGGGLVQAGGSLRLSCAASGFTFFAYTMGWYRQAPWKERELVAAISWSGAGTYYADSVKGRFTISRDNAKNTVYLQMNSLKPEDTAVYYCNGVPYSGFDYWGQGTQVTVSS”, “high polyreactivity”.
Under “QVQLVETGGGLVRAGGSLRLSCAASGRPFGRYAMGWYRQGPGKETELVAAITRTGITNYEVSVKGRFTISRDNAKNTVYLHMNSLNPEDTAVYYGAARRWLNCYGTGYGYWGQGTLVTVSS” stands “high polyreactivity”.
Take “QVQLVESGGGIVQAGGSLRLSCAASGRIFDRYAMGWYRQAPGTERELVAAITGSGGRTYYADSVKGRFTISRDNAKNTVYLQMNSLKPEDTAVYYCARALGQRGYVYWGQGTQVTVSS”: the “polyreactivity (PSR sort gate)” value is “high polyreactivity”.
Under “QVQLVESGGGLVQAGGSLRLSCAASGFIFEKYTMGWYRQAPGKERELVAAITWNGGSTYYADSVKGRFTISRDNAKNTVYLQMNSLKPEDTAVYYCAARVGWNKRRYDYWGQGTQVTVSS” stands “low polyreactivity”.
Under “QVQLVESGGGLVQAGGSLRLICAASGFTFLVYAMAWDRQAPGKERELVAAIRWRGGSTYADSLKGRFTISRDNAKNTVYLQMYSLKPEDTAVYYCAAANRYYVSPRVYYWGQGTQVTVSS” stands “high polyreactivity”.
Consider “QVQLVESGGGLVQAGGRLRLSCAASGFTFYVNAMGWYRQAPGKERELVAAIRGSGGSTYYADSVKGRFTISRVNAKITVYLQMNSLKPEDTAVYYCAKGKARSAQGSSRAYNYWGQGTQVTVSS”, for which the “polyreactivity (PSR sort gate)” value is reported as “high polyreactivity”.
Under “QVQLVESGGGLVQAGGRLRLSCAASGLTFDGYAMGWYRQAPGKERELVAAISWSGNTYYADSVKGRFKISRDNAKNTVYLQMNSLKPEDTAVYYCAVKYYHYGSWGQGTQVTVSS” stands “high polyreactivity”; under “QVQLVESGGGLVQAGGSLRLSCAASGRIFVGYVMGWYRQAPGKERELVAAISSGGRTYYADSVKGRFTISRDNAKNTVYLQMNSLKPEDTAVYYCAAKRGGYNKEYDYWGQGTQVTVSS”, “high polyreactivity”.
For “QVQLVESGGGLVQAGGSLRLSCAASGRTLRHYAMGWYRQAPGKERELVAAISSTGSSTYYADSVKGRFTISRDNAKITVYLQMNSLKPEDTAVYYCAADKYTWDAGGVVYWGQGTQVTVSS” the value was “low polyreactivity”.
For “QVQLVESGGGLVQAGGSLRLSCAASGSIFLWNAMGGYRQAPGKERDLVAAISSSGGSTYYADSVKGRFTISRDNAKNTVYLQMNSLKPEDTAVYYCAAVSRSYYNSYNYWGQGTQVTVSS” the value was “high polyreactivity”; for “QVQLVESGGGLVQAGGSLRLSCAASGSNFNYNDMGWSRQAPGKERELVAAIDSSGTSTYYADSVKGRFTISRDNAKNTVYLQMNSLKPEDTAVYYCNADSSLGFGYWGQGTQVTVSS”, “low polyreactivity”.
Turning to “QVQLVESGGGLVQAGGSLRLSCAASGRTFYSYAIGWYRPAPGKERELVASITRSGTRTYYADSVKGRFTISRDNAKNTVYLQMNSLKPEDSAVYYCAARYFPLGGYSWGQGTQVSVSS”, the “polyreactivity (PSR sort gate)” value is listed as “high polyreactivity”.
Under “QVQLVESGGGLVQAGGSLRLSCAASGRTFYRYAMGWYRQAPGKERELVAAITRRGDSTSYADSVKGRFTNSRDNAKNTVYLQMNSLKPEDTADYYCATLVQGSVYGLYGGGYWGQGTQVTVSS” stands “low polyreactivity”; under “QVQLVESGGGLVQAGGSLRLSCSASGLTFSYYAMGLYRQAPGTERELVAAITSSGGNTYYADSVKGRFTISRDNAKNTVYLQMNSLKPEDTAVYYCNAVVGLGYNYWGQGNQVTVSS”, “high polyreactivity”.
Under “QVQLVESGGGLVQAGGSLRLSCASSGRNFCIYGMAWYRQAPGKERELVAAISYDSGSTYYADSVTGRFTISRDNAKNTVYLQMNSLNPEDTAVYYCAAEWGLVIYSTYGYDYWGQGTQVTVSS” stands “low polyreactivity”; under “QVQLVESGGGLVQAGGSLRLSCAASGSIFGTNTMGWYRQAPGKERELVAAISGGGSTYYADSVKGRFTISRDNAKNTVYLQMNSLKPEDTAVYYCAVRSLRVDKYGYWGQGTQVTVSS”, “high polyreactivity”.
For the sequence “QVQLVESGGGLVQAGGSLRLSCAASGRTFLRYARGWYRQAPGKERELVAAISWSGGRTYYADSVKGRFTISRDNAKNTVYLQMNSLKPEDTAVYYCNKVVLYGAHYYYWGQGTQVTVSS”, the “polyreactivity (PSR sort gate)” value is “high polyreactivity”.
In the case of “QVQLQASGVGLVQSGGSLRLSCASRGTNFTARFMGWYRQAPGKERELVATITDGGNTNHADRVKGRFTISRDNAKNTVYLQMNSLKPEDAAVYYCAAGEVDNDTLLYWGQGSQVTVSS”, the “polyreactivity (PSR sort gate)” value is reported as “low polyreactivity”.
For the sequence “QVQLVESGGGLVQAGGSLRLSCAASGSTFPGNAMGWYRQAPGKERELVARINDGADTNYADSVKGRFTISRDNAKTTVSLQMNSLKPEDTAVYYCANPYFDGRTHFDSWGQGTQVTVSS”, the “polyreactivity (PSR sort gate)” value is reported as “low polyreactivity”.
Under “QVHLVESGGGLVQAGGSLRLSCAASGITFYVYAMGWYRQAPGKERELVAAINYDSGSTYYADSVKGRFTISRDNAKNTVYLQMISLKPEDTAVYYCATDGVNPFYAYDYWGQGNQVTVSS” stands “low polyreactivity”.
Under “QVQLVESGGGLVQAGGSLRLSCAASGIIILEYVMGSYRQAPGKERELVAAINSGGSTYYADSVKGRFTISRDNAKNTVYLQMNSLKPEDTAVYYCAADDYYKFDYWGQGTQVTVSS” stands “low polyreactivity”; under “QVQLVESGGGLVQAGCSLRLTCAASGSIFPYYAMGWYRQAPGKERELVAAISYSGGRTRYADSVKGRFTISRDNAKNTVYLQMNSLKPEHTAVYYCAVVDRHQPYGRQLDYWGQGTQVTVSS”, “low polyreactivity”; under “QVQLVESGGGLVQAGGSIRLTCAASGSIFKLYAMGWYRQATGKERELVAAISWRGGSTYYADSVKGRFTISRDIAKNTVYLQMNSLKPEDTAVYYCAAEYRQYDYWGQGTQVTVSS”, “high polyreactivity”.
For “QVQLVESGGGLVQAGGSLRLSCAASGCIFEIYAMGWYRQAPGKERELVAAITDSGGSTYYADSVKARFTISRDNANNTVYLQMNSLKPEDTAVYYCAAVGNSYETLLFYYWGQGTQVTVSS” the value was “low polyreactivity”; for “QVQLVESGGGLVQAGGSLRLSCAASGRTFPYYDKGWYRQAPGKERELVATISWSGGTTYADSVKGRFTISRDNAKNTVYLQMNSLKPEDTAVYFCAAVSYVYRYYWGQGTQVTVSS”, “low polyreactivity”.
For “QVQLVESGGGLVQAGCRLRLSCAASGSIIYRKAMGWYRQAPGKERQLVAAISARGGRTNYAVSVKGRFTISRDNAKNTVYLQLYSLNPEDTAVYYCNTADSWYHRSQAYDYWGQGTQVTVSS”, the “polyreactivity (PSR sort gate)” value was “high polyreactivity”.
Under “QVQLVESGGGLVQAGGSLRLSCAASGRISSSYAMGWYRQAPGKERELVAAIDNSDDTTYYADSVKGRFTISLDNAKNTVYLQMNSLKPEDTAVYSCATLVYSSELGYWGQGTQVTVSS” stands “high polyreactivity”; under “QVQHGESGGGLVQAGGRLRLICAASGSISVWYVMGWYRQAPGKERELVAAITRSGGSTFYADSVKGRFTISRDNAKNTVYLEMNSLKPEDTAVYYCAADFPSLYVWYGYGWYKYDYWGQGTQVTVSS”, “low polyreactivity”.
